The target in series [1] is yeast alcohol dehydrogenase (ADH) from Saccharomyces cerevisiae (Saccharomyces cerevisiae) (UniProt P00330). In words: native MS.
The series “native MS” deals with the molecule itself. In words: native MS.

For orientation: stoichiometry N means a count of units in the complex or per binding partner. Consider “yeast alcohol dehydrogenase (ADH) from Saccharomyces cerevisiae (from UniProt P00330 1-348) (enzyme)”, for which the stoichiometry N in series [1] stood at 4.

B1: Fenna-Matthews-Olson (FMO) antenna protein from the green sulfur bacterium Chlorobaculum tepidum (natural protein, UniProt Q46393 1-366, looked up)
chain: MALFGSNDVTTAHSDYEIVLEGGSSSWGKVKARAKVNAPPASPLLPADCDVKLNVKPLDPAKGFVRISAVFESIVDSTKNKLTIEADIANETKERRISVGEGMVSVGDFSHTFSFEGSVVNLFYYRSDAVRRNVPNPIYMQGRQFHDILMKVPLDNNDLIDTWEGTVKAIGSTGAFNDWIRDFWFIGPAFTALNEGGQRISRIEVNGLNTESGPKGPVGVSRWRFSHGGSGMVDSISRWAELFPSDKLNRPAQVEAGFRSDSQGIEVKVDGEFPGVSVDAGGGLRRILNHPLIPLVHHGMVGKFNNFNVDAQLKVVLPKGYKIRYAAPQYRSQNLEEYRWSGGAYARWVEHVCKGGVGQFEILYAQ
With B1, in “native MS”, the “stoichiometry N” value worked out at 3.

For the origin of these results see paper PMC3136621 (Analytical chemistry, 2011).
